Data taken from paper PMC12846431.

What was measured:
[1] = target: TMR-NTT (TMR-labeled Serinc3 NTT(Cys16) peptide, MBP removed) (UniProt Q13530); assay: fluorescence polarisation; conditions: read off a plot
[2] = target: complex of wild-type MBP-Nef with the α(1–398)/σ2 hemicomplex of AP2 (HIV-1 (NL4.3) | not stated) (UniProt Q90VU7); assay: fluorescence polarisation; α(1–398)/σ2 (20 µM) and MBP-Nef WT or mutant (30 µM) mixed 30 min at room temperature, then 200 nM TMR-NTT, 15 μL, 1 or 2 h at room temperature; single concentration; control is probe only

Substance	response [1] [mP]	FP signal [2] [mP]
complex of wild-type MBP-Nef with the α(1–398)/σ2 hemicomplex of AP2 (from UniProt Q90VU7;P18484;P53680) L112D	16	
complex of wild-type MBP-Nef with the α(1–398)/σ2 hemicomplex of AP2 (from UniProt Q90VU7;P18484;P53680) W57A; L58A	55	
complex of wild-type MBP-Nef with the α(1–398)/σ2 hemicomplex of AP2 (from UniProt Q90VU7;P18484;P53680) L37D	37	
complex of wild-type MBP-Nef with the α(1–398)/σ2 hemicomplex of AP2 (from UniProt Q90VU7;P18484;P53680) F121D	20	
TMR-NTT (TMR-labeled Serinc3 NTT(Cys16) peptide, MBP removed) (from UniProt Q13530 1-39)		90
complex of wild-type MBP-Nef with the α(1–398)/σ2 hemicomplex of AP2 (from UniProt Q90VU7;P18484;P53680) D123K	45	
